In data set [1] the target is MG491-Nt (residues 1 to 308) (Mycoplasma genitalium G37) (UniProt Q9ZB78). The experiment in a line: crystal structure; vapour diffusion at 20°C, 0.2 M lithium sulphate, 25% PEG 3350, pH 6.5-8.5; space group P2(1)2(1)2, four subunits in the asymmetric unit; SAD on seleno methionine MG491-Nt, averaging between crystals.
Data set [2] shares this target. Put plainly: native MS; nano-ElectroSpray Ionization Mass Spectrometry, 10 μM MG491-Nt in 100 mM NH4OAc, acquisition range 500-8000 m/z.
The target is the same in data set [3]. Put plainly: SEC; Superdex 200 16/60 gel filtration column, 0.05 M Tris-HCl (pH 8.0), 0.15 M NaCl; apparent molecular weight. A general note: Size exclusion chromatography separates by hydrodynamic size, large species first.
Data set [4] deals with the molecule itself. Put plainly: crystal structure; vapour diffusion at 20°C, 0.2 M lithium sulphate, 25% PEG 3350, pH 6.5-8.5; space group P2(1)2(1)2, four subunits in the asymmetric unit; SAD on seleno methionine MG491-Nt, averaging between crystals.

By stoichiometry N is commonly meant a count of units in the complex or per binding partner. In the case of “MG491-Nt (residues 1 to 308) (from UniProt Q9ZB78 1-308) (domain or fragment)”, the stoichiometry N in data set [1], in data set [2] and in data set [3] was 4 in each case.

B1: full length MG491 protein (residues 1 to 346) (natural protein)
chain: MVNNEYQQLNTLVESDDEADLVIANLVKQLNELKQILVSLDNQEASATAVTDKKEEEYNQNQSSFHNFSKETLQKQAKRGFLLLERCSLVGLQQLELEYVNLLGRSFDSYQQKTELLNNLKELVDEHFSDTEKIINTLEKIFDVIGGSEYTPVLNSFFNKLLSDPDPIQREIGLRQFIITLRQRFKKLSQKIDSSLKQIETEAKIATEQVQNSEVMFGPPDIANDHELNLNWPDSETDAILSSMENELEAALLAKHQEEPPLIVTPPSLIKPTVSQPEVEVVTPTNNTNFQPQVDLKPTDLKKQQKKKPLNFITRPVFKSNLPPKLSKDDIVHYAHQLLEKNTHNE
notes: MG491, terminal organelle protein of Mycoplasma genitalium G37, residues 1-346; the TGA codon of Trp232 was changed to TGG for expression in E. coli (no change of the protein); Cloned in pET21d between NdeI and XhoI; In the crystals the C-terminal region was lost by proteolysis; also called MG_491 gene product; wild type MG491; source: E. coli BL21 (DE3), purified (HisTrap HP, Superdex 200 16/60)
Regarding B1, the “stoichiometry N” value in data set [4] is 4.

B2: seleno methionine-labeled MG491-Nt (domain or fragment)
chain: MVNNEYQQLNTLVESDDEADLVIANLVKQLNELKQMLVSLDNQEASATAVTDKKEEEYNQNQSSFHNFSKETLQKQAKRGFLLLERCSLVGLQQLELEYVNLLGRSFDSYQQKTELLNNLKELVDEHFSDTEKIINTLEKIFDVIGGSEYTPVLNSFFNKLLSDPDPMQREIGLRQFIITLRQRFKKLSQKIDSSLKQIETEAKMATEQVQNSEVMFGPPDIANDHELNLNWPDSETDAILSSMENELEAALLAKHQEEPPLIVTPPSLIKPTVSQPEVEVVTPTNNTNFQPQVDLKPTDLKKQQKKK
modifications: seleno methionines at 36, 168 and 205
notes: MG491 of Mycoplasma genitalium G37, residues 1-308, with Ile36, Ile168 and Ile205 replaced by (seleno)methionine; residues 65-204, 67-203, 66-203 and 62-205 of subunits A-D are seen in the structure; also called Seleno methionine MG491-Nt; MG491-Nt variant with Ile36, Ile168, Ile205 replaced by seleno methionines; source: E. coli BL21 (DE3) in SelenoMet medium, purified (HisTrap HP, Superdex 200 …)
For the molecule B2, the “stoichiometry N” value in data set [4] came to 4.

For the origin of these results see PMC4833410, “Structure-Guided Mutations in the Terminal Organelle Protein MG491 Cause Major Motility and Morphologic Alterations on Mycoplasma genitalium” (PLoS Pathogens, 2016).
